Experimental data taken from patent US20210017240A1 (ACCESS BUSINESS GROUP INTERNATIONAL, published 2021).

T1: human recombinant renin (human, UniProt P00797 67-406, limits assumed)
T1 sequence (looked up): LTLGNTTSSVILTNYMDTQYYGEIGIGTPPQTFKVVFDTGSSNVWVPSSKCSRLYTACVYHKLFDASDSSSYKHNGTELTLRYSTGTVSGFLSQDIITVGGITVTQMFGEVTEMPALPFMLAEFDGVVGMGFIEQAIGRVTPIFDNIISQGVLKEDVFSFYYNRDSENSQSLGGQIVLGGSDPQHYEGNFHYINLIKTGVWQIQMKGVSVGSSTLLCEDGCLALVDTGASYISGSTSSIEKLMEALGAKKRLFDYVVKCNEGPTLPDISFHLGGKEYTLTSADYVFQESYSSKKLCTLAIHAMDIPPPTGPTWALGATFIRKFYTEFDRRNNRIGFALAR


biological target: T1, human recombinant renin; experiment: cell-based or functional assay

% Inhibition of renin activity at 1 mg/mL peptide (fluorometric Renin Inhibitor Screening Assay Kit) [%]	Binder
107	TGSYTEGWS [isolated peptide 4, TGSYTEGWS (Thr-Gly-Ser-Tyr-Thr-Glu-Gly-Trp-Ser)]
-46.4	MVWGP [isolated peptide 3, MVWGP (Met-Val-Trp-Gly-Pro)]
-40.5	YFVP [isolated peptide 1, YFVP (Tyr-Phe-Val-Pro)]
-54.5	SGRDP [isolated peptide 2, SGRDP (Ser-Gly-Arg-Asp-Pro)]

biological target: angiotensin converting enzyme (ACE); experiment: cell-based or functional assay

IC50 of in vitro ACE activity inhibition (FAPGG substrate, absorbance at 345 nM) [µg/mL]	Binder
550	TGSYTEGWS [isolated peptide 4, TGSYTEGWS (Thr-Gly-Ser-Tyr-Thr-Glu-Gly-Trp-Ser)]
21	MVWGP [isolated peptide 3, MVWGP (Met-Val-Trp-Gly-Pro)]
250	YFVP [isolated peptide 1, YFVP (Tyr-Phe-Val-Pro)]
510	SGRDP [isolated peptide 2, SGRDP (Ser-Gly-Arg-Asp-Pro)]
